This experiment concerns the target T1, 4H.01 (synthetic construct (de novo design)).
T1 chain: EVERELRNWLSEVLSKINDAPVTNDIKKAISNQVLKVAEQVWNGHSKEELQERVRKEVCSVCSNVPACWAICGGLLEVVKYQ
Nature of the experiment: SPR.

Here are results for two molecules from doi:10.1101/2020.03.11.988071 (bioRxiv, 2020).

What is called Kd is the equilibrium constant for the complex coming apart. A higher Kd goes with weaker binding.

B1: 2D10 IgG (antibody, V domains shown)
VH: QVQLVQSGPEVKKPGASVRLSCKASGYVFTNYGVSWVRQAPGQGLEWMGWSSPYNGNTYYAQKLKARVTMTTDTSTNTAYMELRSLRSDDTAVYYCGRDMLGVVQAVAGPFDSWGQGTLVTVSS
VL: DTPMTQSPSSVSASVGDRVTISCRASQGISNSLAWYQQKLGKAPQLLIYAASSLQSGVPSRFSGSGSGTDFTLTISSLQPEDFATYYCQQTNTFPFTFGPGTKVEVR
Consider B1, for which the affinity, expressed as Kd, was 200 nM.

B2: Motavizumab IgG (antibody, V domains shown)
VH: QVTLRESGPALVKPTQTLTLTCTFSGFSLSTAGMSVGWIRQPPGKALEWLADIWWDDKKHYNPSLKDRLTISKDTSKNQVVLKVTNMDPADTATYYCARDMIFNFYFDVWGQGTTVTVSS
VL: DIQMTQSPSTLSASVGDRVTITCSASSRVGYMHWYQQKPGKAPKLLIYDTSKLASGVPSRFSGSGSGTEFTLTISSLQPDDFATYYCFQGSGYPFTFGGGTKVEIK
As for B2, the Kd is 0.5 nM.
